Assay results reported in article doi:10.1101/2021.04.25.441314.
Where two headings read alike, the source gives them in different places.

Experiments:
Hfq Y25D (distal face) [1] = biological target: T1, Hfq Y25D (distal face) (Escherichia coli, UniProt P0A6X3 1-102, Y25D); test: EMSA
Hfq wt [2] = biological target: T2, Hfq wt (Escherichia coli, UniProt P0A6X3 1-102); test: filter binding
Hfq Y25D (distal face) [3] = biological target: T1, Hfq Y25D (distal face); test: filter binding
Hfq R16A (rim) [4] = biological target: T3, Hfq R16A (rim) (Escherichia coli, UniProt P0A6X3 1-102, R16A); test: filter binding
Hfq R16A (rim) [5] = biological target: T3, Hfq R16A (rim); test: filter binding; remark: listed apart in the source
Hfq wt [6] = biological target: T2, Hfq wt; test: competition
Hfq wt [7] = biological target: T2, Hfq wt; test: filter binding; remark: listed apart in the source
Hfq Y25D (distal face) [8] = biological target: T1, Hfq Y25D (distal face); test: filter binding; remark: listed apart in the source
Hfq wt [9] = biological target: T2, Hfq wt; test: filter binding; remark: listed apart in the source
Hfq wt [10] = biological target: T2, Hfq wt; test: competition; remark: listed apart in the source
Hfq Y25D (distal face) [11] = biological target: T1, Hfq Y25D (distal face); test: filter binding; remark: listed apart in the source
Hfq R16A (rim) [12] = biological target: T3, Hfq R16A (rim); test: filter binding; remark: listed apart in the source
Hfq wt [13] = biological target: T2, Hfq wt; test: filter binding; remark: listed apart in the source
Hfq Y25D (distal face) [14] = biological target: T1, Hfq Y25D (distal face); test: filter binding; remark: listed apart in the source
Hfq K56A (proximal face) = Hfq K56A (proximal face) (Escherichia coli, UniProt P0A6X3 1-102, K56A); test: filter binding
Hfq R16A (rim) [15] = biological target: T3, Hfq R16A (rim); test: filter binding; remark: listed apart in the source
Hfq wt [16] = biological target: T2, Hfq wt; test: filter binding; remark: listed apart in the source
Hfq wt [17] = biological target: T2, Hfq wt; test: filter binding; remark: listed apart in the source
Hfq Y25D (distal face) [18] = biological target: T1, Hfq Y25D (distal face); test: filter binding; remark: listed apart in the source
Hfq R16A (rim) [19] = biological target: T3, Hfq R16A (rim); test: filter binding; remark: listed apart in the source

B1: RybB (structured_RNA)
RNA: GGCCACUGCUUUUCUUUGAUGUCCCCAUUUUGUGGAGCCCAUCAACCCCGCCAUUUCGGUUCAAGGUUGAUGGGUUUUUU
B1: binds (Hfq Y25D (distal face) [1]).

B2: AgvB-U0 (structured_RNA)
RNA: GGCGAUAACACAACAAUAUCAGUAUCUCAUGCUAUUGCCCGAACCCAUUCGGGCA
B2 was tested, and the Kd (Hfq wt [2]) was 1.75 ± 0.6 nM, the Kd (Hfq Y25D (distal face) [3]) was 21 ± 8 nM and the Kd (Hfq R16A (rim) [4]) was 3.9 ± 0.76 nM.

B3: GcvB (structured_RNA)
RNA: GACUUCCUGAGCCGGAACGAAAAGUUUUAUCGGAAUGCGUGUUCUGGUGAACUUUUGGCUUACGGUUGUGAUGUUGUGUUGUUGUGUUUGCAAUUGGUCUGCGAUUCAGACCAUGGUAGCAAAGCUACCUUUUUUCACUUCCUGUACAUUUACCCUGUCUGUCCAUAGUGAUUAAUGUAGCACCGCCUAAUUGCGGUGCUUUUUUU
For B3, the binding signal (Hfq R16A (rim) [5]) was 30 fold weaker than wt Hfq, the IC50 (Hfq wt [6]) was 23 ± 5.2 nM and the Kd (Hfq wt [7]) was less than 1 nM. The Kd (Hfq Y25D (distal face) [8]) was less than 1 nM.

B4: 3'ETSleuZ (structured_RNA)
RNA: GGCCCGGAUGGUGGAAUCGGUAGACACAAGGGAUUUAAAAUCCCUCGGCGUUCGCGCUGUGCGGGUUCAAGUCCCGCUCCGGGUACCAUGGGAAAGAUAAGAAUAAAAUCAAAGCAAUAAGCAGUGUCGUGAAACCACCUUCGGGUGGUUUUUUU
Binder B4 has a Kd (Hfq wt [9]) of 0.22 ± 0.008 nM, an IC50 (Hfq wt [10]) of 2.8 ± 0.35 nM and an IC50 (Hfq wt [6]) of 39 ± 7.3 nM. The Kd (Hfq Y25D (distal face) [11]) was 0.34 ± 0.18 nM and the binding result (Hfq R16A (rim) [12]) was “binds”.

B5: AgvB (structured_RNA)
RNA: GGCGAUAACACAACAAUAUCAGUAUCUCAUGCUAUUGCCCGAACCCAUUCGGGCAUUUUU
B5 gave a Kd (Hfq wt [13]) of 0.38 ± 0.06 nM, an IC50 (Hfq wt [10]) of 3.2 ± 1.4 nM and an IC50 (Hfq wt [6]) of 9.9 ± 2.7 nM. For the same binder, the Kd (Hfq Y25D (distal face) [14]) was 0.13 ± 0.003 nM, the Kd (Hfq K56A (proximal face)) was 27.2 ± 2.4 nM and the Kd (Hfq R16A (rim) [15]) was 2.7 ± 0.12 nM.

B6: 3'ETSleuZ-U4 (structured_RNA)
RNA: GGCCCGGAUGGUGGAAUCGGUAGACACAAGGGAUUUAAAAUCCCUCGGCGUUCGCGCUGUGCGGGUUCAAGUCCCGCUCCGGGUACCAUGGGAAAGAUAAGAAUAAAAUCAAAGCAAUAAGCAGUGUCGUGAAACCACCUUCGGGUGGUUUU
B6: binds (Hfq wt [16]).

B7: AgvB-U9 (structured_RNA)
RNA: GGCGAUAACACAACAAUAUCAGUAUCUCAUGCUAUUGCCCGAACCCAUUCGGGCAUUUUUUUUU
B7 showed a Kd (Hfq wt [17]) of 0.18 ± 0.02 nM, a Kd (Hfq Y25D (distal face) [18]) of 0.12 ± 0.016 nM and a Kd (Hfq R16A (rim) [19]) of 0.19 ± 0.02 nM.
